Assay results reported in PMC8016751 (Nature, 2020).
Read-outs that look alike come from different tables or passages of the source.

T1: MBP-tagged Mei4 (S. cerevisiae, UniProt P29467 1-408)
T1 sequence: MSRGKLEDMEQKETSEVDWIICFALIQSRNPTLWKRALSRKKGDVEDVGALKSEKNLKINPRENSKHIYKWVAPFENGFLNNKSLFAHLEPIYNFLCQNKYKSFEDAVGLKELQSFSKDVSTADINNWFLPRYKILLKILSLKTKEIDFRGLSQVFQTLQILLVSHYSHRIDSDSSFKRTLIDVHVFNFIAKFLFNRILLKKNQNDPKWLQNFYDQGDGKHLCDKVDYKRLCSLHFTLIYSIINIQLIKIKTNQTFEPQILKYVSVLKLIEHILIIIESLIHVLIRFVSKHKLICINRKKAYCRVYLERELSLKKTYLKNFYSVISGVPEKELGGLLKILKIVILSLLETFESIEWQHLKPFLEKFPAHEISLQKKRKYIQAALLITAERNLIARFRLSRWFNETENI

T2: Mei4 (untagged, from ^MBP-TEVMei4) (S. cerevisiae, UniProt P29467 1-408)
T2 sequence: T1 sequence

T3: Rec114-Mei4 (Saccharomyces cerevisiae, UniProt P32841;P29467 1-428;1-408)
T3 sequence 1: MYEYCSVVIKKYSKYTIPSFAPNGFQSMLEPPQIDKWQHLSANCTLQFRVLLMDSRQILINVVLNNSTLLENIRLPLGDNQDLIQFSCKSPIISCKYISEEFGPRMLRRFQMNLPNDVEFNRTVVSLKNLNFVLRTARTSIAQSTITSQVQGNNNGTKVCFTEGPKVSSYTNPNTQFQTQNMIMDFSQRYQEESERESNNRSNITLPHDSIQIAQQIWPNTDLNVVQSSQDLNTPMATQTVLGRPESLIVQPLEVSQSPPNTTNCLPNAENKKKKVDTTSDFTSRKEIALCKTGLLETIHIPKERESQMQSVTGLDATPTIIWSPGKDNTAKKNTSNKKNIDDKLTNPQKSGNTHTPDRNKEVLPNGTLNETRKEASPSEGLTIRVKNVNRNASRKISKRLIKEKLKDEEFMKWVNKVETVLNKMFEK
T3 sequence 2: T1 sequence

T4: Mer2 (Saccharomyces cerevisiae, UniProt P21651 1-314)
T4 sequence: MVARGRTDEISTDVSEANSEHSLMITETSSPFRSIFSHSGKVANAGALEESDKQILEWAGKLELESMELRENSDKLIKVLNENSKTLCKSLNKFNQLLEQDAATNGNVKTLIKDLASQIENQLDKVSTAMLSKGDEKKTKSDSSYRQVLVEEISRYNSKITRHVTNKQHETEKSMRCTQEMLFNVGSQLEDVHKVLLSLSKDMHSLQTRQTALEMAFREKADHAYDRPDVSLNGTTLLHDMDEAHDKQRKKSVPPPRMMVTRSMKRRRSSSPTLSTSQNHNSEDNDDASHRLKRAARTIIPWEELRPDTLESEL

B1: HisFlag-tagged Rec114 (natural protein)
chain: T3 sequence 1
B2: Mer2 coiled-coil domain (residues 77-227) (domain or fragment)
chain: IKVLNENSKTLCKSLNKFNQLLEQDAATNGNVKTLIKDLASQIENQLDKVSTAMLSKGDEKKTKSDSSYRQVLVEEISRYNSKITRHVTNKQHETEKSMRCTQEMLFNVGSQLEDVHKVLLSLSKDMHSLQTRQTALEMAFREKADHAYDR
B3: Rec114 (untagged, from ^HisFlag-TEVRec114) (natural protein)
chain: T3 sequence 1
B4: Mer2 (untagged, from ^SUMOMer2) (natural protein)
chain: T4 sequence
B5: dsDNA80 (dsDNA)
DNA 1: CTAGTATAGAGCCGGCGCGCCATGTCTAGATAGCGTTAGGTCTGCCGAATAGTACTACTCGGATCCCGAGCGAACCACGC
DNA 2: GCGTGGTTCGCTCGGGATCCGAGTAGTACTATTCGGCAGACCTAACGCTATCTAGACATGGCGCGCCGGCTCTATACTAG
B6: dsDNA40 (dsDNA)
DNA 1: CAACGTGGGCAAAGATGTCCTAGCAATGTAATCGTCTATG
DNA 2: CATAGACGATTACATTGCTAGGACATCTTTGCCCACGTTG
B7: dsDNA20 (dsDNA)
DNA 1: AAAGATGTCCTAGCAATGTA
DNA 2: TACATTGCTAGGACATCTTT

Legend:
[1] = target: Mer2 coiled-coil single-chain dimer (S. cerevisiae) (UniProt P21651); experiment: SEC-MALS
MBP-tagged Mei4 = target: T1, MBP-tagged Mei4; experiment: SEC-MALS
SEC-MALS [2] = target: the molecule itself; experiment: SEC-MALS
[3] = target: T2, Mei4 (untagged, from ^MBP-TEVMei4); experiment: SEC-MALS
SEC-MALS [4] = target: the molecule itself; experiment: SEC-MALS; remark: listed apart in the source
Rec114-Mei4 = target: T3, Rec114-Mei4; experiment: EMSA
Mer2 = target: T4, Mer2; experiment: EMSA

Molecule | apparent K (half saturation) (Rec114-Mei4) [nM] | apparent K (half saturation) (Mer2) [nM] | also measured
Mer2 coiled-coil single-chain dimer (from UniProt P21651) |  |  | stoichiometry N [1]: 2
B1 |  |  | stoichiometry N (MBP-tagged Mei4): 2 Rec114 per Mei4
B2 |  |  | stoichiometry N (SEC-MALS [2]): 4
B3 |  |  | stoichiometry N [3]: 2 Rec114 per Mei4
B4 |  |  | stoichiometry N (SEC-MALS [4]): 4
B5 | 6 | 19 | 
B6 | 35 | 64 | 
B7 | ~80 | > 400 | 
